Laboratory results reported in the supplement of paper PMC10126150.
± gives the standard deviation of the averaged measurements.

Test system: ATP
Test: switch fluorescence ratio, 500 uM ATP over buffer (Cy3 cluster intensity, sum of 5 cycles each) (fold (ratio)); higher = stronger signal-on switching upon ATP binding; sequences stand for … in TCGTCGGCAGCGTCAGATGTGTATAAGAGACAGTTTTTTTTTTTTTTTTTTTTTTTTT…TC
Settings: aptamer strand: ATP DNA aptamer (quencher-CACCTGGGGGAGTATTGCGGAGGAAGG + anchor), 100 nM annealed; ATP concentration: 500 uM
How it was run: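 Five buffer/ATP imaging cycles were run on Cy3-labelled switching-strand clusters on a modified Illumina MiSeq flow-cell, with NaOH stripping and re-annealing between cycles. In each cycle, clusters annealed to 100 nM quencher-labelled ATP aptamer were imaged in selection buffer, then after 15 min with 500 uM ATP at 22 °C. Per cluster, the fluorescence ratio is summed target-cycle over summed buffer-cycle Cy3 intensity, averaged per switch-domain sequence. Only clusters within 100-1000 RFU were kept.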
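Note: ATP exposure 15 min at 22 °C before imaging.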

Sequence	switch fluorescence ratio
GAACCGTAAA	1.128 ± 0.0073
TCGTGGGACT	1.07 ± 0.12
AATCCTATCA	1.02 ± 0.014
GGATTAGCGA	0.975 ± 0.025
CTAGTCGCGC	1 ± 0.026
GCGGAAAAAC	1.02 ± 0.058
ATTGGGCAGT	0.973 ± 0.053
TTGGTGTAAG	1.0001 ± 0.00079
GAGAGGGTAT	0.966 ± 0.012
TAATTAATGC	1.02 ± 0.037
TGCAGATTTT	0.994 ± 0.033
ACGCAGTTCC	1.151 ± 0.0075
CGTATCTGAC	1.04 ± 0.014
GGGCACAGCA	0.9752 ± 0.0056
GTTTTAGTCA	0.9989 ± 0.001
GAGTTCTTCA	0.973 ± 0.015
GATGGCCCTT	0.99064 ± 0.00065
TAGTCTTGGG	1.001 ± 0.0026
ATAGTGGTGA	1.03 ± 0.048
ACGACTCCCG	1.109 ± 0.0044
AAAAGCACGA	1.09 ± 0.2
GGGCCTCGGT	0.9914 ± 0.0087
GAGTATTAGG	1.02 ± 0.0094

Sequence	switch fluorescence ratio
TTCGGTGGGA	1.07 ± 0.02
ACTACTGACA	1.24 ± 0.04
CACGGATTCA	0.988 ± 0.043
TAGGGGAGAA	1.01 ± 0.014
TAAAAAGTAC	1.02 ± 0.027
AACAGGGTGG	1.016 ± 0.0021
TGGGGGTCGC	1.01 ± 0.019
AACCACAGGA	1.057 ± 0.0019
TAACGTGTTT	1 ± 0.017
ACGGATTGAA	1.003 ± 0.0058
GACCGGGTAA	1.02 ± 0.033
GGTTTAATTC	1.01 ± 0.012
GTAGGGGGTG	1.02 ± 0.065
TTGGGGGGTC	1 ± 0.034
TTATTTTAAA	1.01 ± 0.024
CGGGTCTTAG	1.01 ± 0.011
TTGGAAGGAC	1.03 ± 0.013
TCGGAAATTT	1.002 ± 0.0079
TTAGAAGCTT	1.03 ± 0.03
TCGGAGCTTA	2.977 ± 0.018
TGGCGGTTTT	1.005 ± 0.0077
AAAGTAAGCC	0.984 ± 0.018
TTGGAGACGG	1.023 ± 0.0012

Sequence	switch fluorescence ratio
TATTCCGTCC	1.1 ± 0.049
GTTTTGGTTG	1.01 ± 0.027
GCATTCCGTT	1.02 ± 0.011
CGCCGGTTGG	0.997 ± 0.014
CTAATCATCT	1.01 ± 0.039
ATGCGCTCTA	0.992 ± 0.018
ACAAAGACCT	1.42 ± 0.031
TGGAAATAAG	1.03 ± 0.047
GTTTTCACGT	1.01 ± 0.013
GCCCGTATGG	1 ± 0.019
GGGGTGTGCT	1.1 ± 0.16
TGGGCCAGA	1.01 ± 0.024
TAACTATGTA	1.02 ± 0.034
AGTCTCAGGC	1 ± 0.032
TTAGGGGTGC	1.07 ± 0.037
GTTGTACGAG	0.9824 ± 0.0058
TATATGTGGC	1.07 ± 0.068
TTTGTTGTCT	0.995 ± 0.011
GCTGGGGGGG	1.02 ± 0.037
TTTGGGACGT	0.978 ± 0.03
GATTAAAGTC	1.03 ± 0.034
TTTTTTATT	0.963 ± 0.013
TAATTGGGTT	1 ± 0.019

Sequence	switch fluorescence ratio
TATACTGCAC	1.54 ± 0.032
AAACTGTAAT	1.08 ± 0.017
CGTGGCATTT	1.03 ± 0.07
CCGGACGGAG	1.04 ± 0.026
GCGAGAGGGT	0.974 ± 0.025
ACCTGGCACA	1.09 ± 0.012
GAGTTTCATG	0.963 ± 0.015
AAGGCTGTAA	0.97831 ± 0.0009
GAGTGATAAG	1 ± 0.017
TCCATGTAA	1.01 ± 0.045
TTATATGTTA	1.03 ± 0.055
CGTCATATTG	0.997 ± 0.027
TTGAGGTACG	1.03 ± 0.082
GGGGCACGCT	0.999 ± 0.03
GTGTGGGGAC	0.988 ± 0.044
TTTGGCGCTG	0.984 ± 0.019
CTATTATAGT	0.9844 ± 0.0034
TTGGGGCGGG	1.01 ± 0.039
TGAGTATTGC	0.969 ± 0.04
AGGGGTTAAT	0.985 ± 0.035
CGGCGGGCTT	1.02 ± 0.018
AGTGATCAGG	1 ± 0.019
AGAATTGTGG	0.9728 ± 0.0027

Sequence	switch fluorescence ratio
TGGGTGGGCC	0.981 ± 0.023
GGGGGAAACT	1.013 ± 0.0073
TTAGAAAGTC	1.64 ± 0.93
TGGAATTCGG	1.02 ± 0.0061
AGGGGGAGGG	1.01 ± 0.03
CGGCCGAGGA	0.978 ± 0.01
CAAAAAGGGA	1.0178 ± 0.00094
GCAAGACATT	1.12 ± 0.019
GGCGGGTATG	1.0223 ± 0.00097
AGAAAAATTG	0.979 ± 0.067
TGAGGGGGCT	0.9862 ± 0.0034
TGGTTATGGG	0.985 ± 0.022
CGTAGCACAG	1.3067 ± 0.0013
CGTGTGGCCA	1 ± 0.016
TGGGAGTGGG	0.983 ± 0.019
CGAGTAGAGG	1.02 ± 0.026
GTGGTAAATG	1.01 ± 0.035
GGGAAGGAAG	1.04 ± 0.04
GGGGGCAGTT	1 ± 0.013
CTAACATGTG	0.998 ± 0.03
TAGGAGCGTG	1.02 ± 0.044
CTAAAATTGA	0.985 ± 0.038
GTGTTATTGC	0.953 ± 0.011

Sequence	switch fluorescence ratio
GGATAAGGTT	0.9871 ± 0.0022
AAAACTGCGA	1.03 ± 0.067
TGTCATCTAC	1.02 ± 0.016
GGGTGAGGAT	1 ± 0.046
TAGAGCAGCT	1.03 ± 0.021
ATTTTTGCGC	1.03 ± 0.055
TTGATTAGTA	0.97 ± 0.028
ATTAAGTTGG	0.982 ± 0.022
GTCAATTTGA	0.978 ± 0.062
TAGCGAGGGG	0.98529 ± 0.00026
ATGTGTAGGG	0.9711 ± 0.0014
TTGTGTAAGC	1.01 ± 0.038
TTTCGGTATT	1.02 ± 0.02
ATCTAGGGTC	1.01 ± 0.031
AATGAGTATA	0.9915 ± 0.007
ATTCAGGTTC	0.996 ± 0.032
AAAGGTGATA	1.03 ± 0.037
CGGGGGCCGA	1 ± 0.019
GCCTCAGGAT	0.996 ± 0.068
AGATAAAGGT	0.995 ± 0.057
GGGGGACGTT	0.981 ± 0.031
TTCAAGTTAT	1.04 ± 0.045
TTACCAGTCT	1 ± 0.046

Sequence	switch fluorescence ratio
TTTCATTTTT	0.999 ± 0.035
TACGTTTGGG	0.981 ± 0.031
TGTGGGTATA	0.995 ± 0.02
CGGAAGCGGG	1.02 ± 0.038
TATGGTCGCT	1.03 ± 0.041
TGCGAGAAGG	0.999 ± 0.011
GATGTTTTAC	0.998 ± 0.025
ATATAAGAAA	1.03 ± 0.041
AAGTAACGGT	1.02 ± 0.047
GAAAGAGTGA	1.01 ± 0.016
AATGCTGTTG	0.991 ± 0.02
TAGGAAAGAA	1.03 ± 0.028
TTATCAGTGT	0.972 ± 0.063
ACATGACGGT	1.06 ± 0.027
ATTTTTTAGG	0.993 ± 0.025
ACGGTAGTGC	1.04 ± 0.022
GTTGAAAGGG	1.03 ± 0.027
AGGCATCGGA	0.9953 ± 0.0063
GAGATGGCAT	0.987 ± 0.04
